Reference: patent US20190218261A1, “TARGETED ENHANCED DNA DEMETHYLATION” (The Jackson Laboratory, priority 2016, published 2019)

Test system: hMLH1 expression (methylation-silenced hMLH1 promoter) in HEK293T cells
Assay: hMLH1 mRNA levels by TaqMan qRT-PCR in transfected HEK293T cells
Type: cell-based, human
Method: To test the system, HEK293T cells were transfected with Casilio-ME components including Ct or Nt-fusion TET1-effector and a combination of 3 or 2 sgRNAs. Relative levels of hMLH1 mRNA were determined in TaqMan assays by using RNA extracted from cells 60 hours post-transfection and GAPDH as endogenous control for normalization of qRT-PCR measurements.
Cell culture and transfection. HEK293T cells were cultivated in Dulbecco's modified Eagle's medium (DMEM)(Sigma) with 10% fetal bovine serum (FBS)(Lonza), 4% Glutamax (Gibco), 1% Sodium Pyruvate (Gibco) and penicillin-streptomycin (Gibco) in an incubator set to 37° C. and 5% CO2. When indicated cells were treated with 2.5 μM or 5 μM 5-Azacytidine (sigma) as indicated with a daily change of medium containing freshly diluted drug. Cells were seeded into 12-well plates at 150,000 cells per well the day before being transfected with 100 ng of dCas9 construct, 100 ng of modified sgRNA construct and 200 ng of PUF-fusion with Attractene transfection reagent according to manufacturer's instructions (Qiagen). In dCas9-direct fusion experiments, cells were transfected with 200 ng dCas9-fusion constructs and 200 ng of modified sgRNA constructs. Transfected cells were harvested 60 hours after transfection, or otherwise indicated, and cell pellets were used for extractions of RNA, genomic DNA and protein.
Quantitative RT-PCR analysis. Cells were harvested, washed with Dulbecco's phosphate-buffered saline (dPBS), centrifuged at 125×g for 5 min and then the flash-frozen pellets were stored at −80° C. RNA was extracted using RNeasy Plus Mini Kit according to the manufacturer's instructions (Qiagen). cDNA libraries were made using Applied Biosystems High Capacity RNA-to-cDNA kit with 200 ng to 1 μg of RNA. TaqMan gene expression assays (Applied Biosystems) were designed using GAPDH (Hs03929097, VIC) as endogenous control and hMLH1 (Hs00179866, FAM) as target. TaqMan Universal Master Mix II, with UNG (Applied Biosystems) was used for Quantitative PCR (qPCR), with 2 μl of diluted cDNA used for each reaction. Activation was analyzed with the Applied Biosystems ViiA7 instrument. Gene expression levels were calculated by “delta delta Ct” algorithm and normalized to control samples.
HEK293T cells were cultivated in Dulbecco's modified Eagle's medium (DMEM) (Sigma) with 10% fetal bovine serum (FBS) (Lonza), 4% Glutamax (Gibco), 1% Sodium Pyruvate (Gibco) and penicillin-streptomycin (Gibco) in an incubator set to 37° C. and 5% CO2. Cells were seeded into 12-well plates at 150,000 cells per well the day before being transfected with 100 ng of dCas9 construct, 100 ng of modified sgRNA construct and 200 ng of PUF-fusion with Attractene transfection reagent according to manufacturer's instructions (Qiagen). Transfected cells were harvested 3 days after transfection, or otherwise indicated, and cell pellets were used for RNA extractions.
Cells were harvested, washed with Dulbecco's phosphate-buffered saline (dPBS), centrifuged at 125×g for 5 min and then the flash-frozen pellets were stored at −80° C. RNA was extracted using RNeasy Plus Mini Kit according to the manufacturer's instructions (Qiagen). cDNA libraries were made using Applied Biosystems High Capacity RNA-to-cDNA kit with 200 ng to 2 μg of RNA. TaqMan gene expression assays (Applied Biosystems) were designed using GAPDH (Hs03929097, VIC) as endogenous control and hMLH1 (Hs00179866, FAM) as target. TaqMan Universal Master Mix II, with UNG (Applied Biosystems) was used for Quantitative PCR (qPCR), with 2 μl of diluted cDNA used for each reaction. Activation was analyzed with the Applied Biosystems ViiA7 instrument. Gene expression levels were calculated by “delta delta Ct” algorithm and normalized to control samples.

B1: TET1(CD)(H1671Y D1673A)-PUFa: catalytically dead TET1(CD) PUFa fusion; SEQ ID NO:110 (protein)
chain: MIDGGGGSDPKKKRKVDPKKKRKVDPKKKRKVGSTGSRNDGGGGSGGGGSGGGGSGRAGILPPKKKRKVSRGRSRLLEDFRNNRYPNLQLREIAGHIMEFSQDQHGSRFIQLKLERATPAERQLVFNEILQAAYQLMVDVFGNYVIQKFFEFGSLEQKLALAERIRGHVLSLALQMYGSRVIEKALEFIPSDQQNEMVRELDGHVLKCVKDQNGNHVVQKCIECVQPQSLQFIIDAFKGQVFALSTHPYGCRVIQRILEHCLPDQTLPILEELHQHTEQLVQDQYGNYVIQHVLEHGRPEDKSKIVAEIRGNVLVLSQHKFASNVVEKCVTHASRTERAVLIDEVCTMNDGPHSALYTMMKDQYANYVVQKMIDVAEPGQRKIVMHKIRPHIATLRKYTYGKHILAKLEKYYMKNGVDLGDPKKKRKVDPKKKRKVGGRGGGGSGGGGSGGGGSGPAELPTCSCLDRVIQKDKGPYYTHLGAGPSVAAVREIMENRYGQKGNAIRIEIVVYTGKEGKSSHGCPIAKWVLRRSSDEEKVLCLVRQRTGHHCPTAVMVVLIMVWDGIPLPMADRLYTELTENLKSYNGHPTDRRCTLNENRTCTCQGIDPETCGASFSFGCSWSMYFNGCKFGRSPSPRRFRIDPSSPLHEKNLEDNLQSLATRLAPIYKQYAPVAYQNQVEYENVARECRLGSKEGRPFSGVTACLDFCAHPYRAIHNMNNGSTVVCTLTREDNRSLGVIPQDEQLHVLPLYKLSDTDEFGSKEGMEAKIKSGAIEVLAPRRKKRTCFTQPVPRSGKKRAAMMTEVLAHKIRAVEKKPIPRIKRKNNSTTTNNSKPSSLPTLGSNTETVQPEVKSETEPHFILKSSDNTKTYSLMPSAPHPVKEASPGFSWSPKTASATPAPLKNDATASCGFSERSSTPHCTMPSGRLSGANAAAADGPGISQLGEVAPLPTLSAPVMEPLINSEPSTGVTEPLTPHQPNHQPSFLTSPQDLASSPMEEDEQHSEADEPPSDEPLSDDPLSPAEEKLPHIDEYWSDSEHIFLDANIGGVAIAPAHGSVLIECARRELHATTPVEHPNRNHPTRLSLVFYQHKNLNKPQHGFELNKIKFEAKEAKNKKMKASEQKDQAANEGPEQSSEVNELNQIPSHKALTLTHDNVVTVSPYALTHVAGPYNHWVID
- hMLH1 expression without TET1 catalytic activity (GADD45A expressed with catalytically dead TET1(CD) fusion or without TET1(CD) fusion): no hMLH1 expression was detected

B2: NEIL2: NEIL2 glycosylase enhancer, tested fused to PUFa-TET1(CD) (either PUFa terminus) or to PUFc (protein)
chain: MLPEGPLVRKFHHLVSPFVGQQVVKTGGSSKKLQPASLQSLWLQDTQVHGKKLFLRFDLDEEMGPPGSSPTPEPPQKEVQKEGAADPKQVGEPSGQKTLDGSSRSAELVPQGEDDSEYLERDAPAGDAGRWLRVSFGLFGSVWVNDFSRAKKANKRGDWRDPSPRLVLHFGGGGFLAFYNCQLSWSSSPVVTPTCDILSEKFHRGQALEALGQAQPVCYTLLDQRYFSGLGNIIKNEALYRAGIHPLSLGSVLSASRREVLVDHVVEFSTAWLQGKFQGRPQHTQVYQKEQCPAGHQVMKEAFGPEDGLQRLTWWCPQCQPQLSEEPEQCQFS
- increase in gene activation with NEIL2 in the PUFa-TET1CD fusion (repeat experiment) (MLH1 gRNAs, NEIL2 at either PUFa terminus): four-fold increase in gene activation
- increase in hMLH1 expression with NEIL2 fused to PUFc (co-expressed with PUFa-TET1(CD), gRNAs with PBSa/c, RT-quantitative PCR): 7 fold
- hMLH1 activation by DNA glycosylase two-in-one effector fusions (in words) (fusions to PUFa-TET1(CD), gRNA 5xPBSa, HEK293T, 3 days): enhanced activation of hMLH1
- effect on TET1-mediated gene activation when gRNA lacked PBSc (gRNA scaffold with PBSa only): no effect on TET1-mediated gene activation
- hMLH1 activation relative to TET1 effector alone (two-in-one fusion to PUFa-TET1(CD)): 3 fold

B3: PUFc-NEIL2: SEQ ID NO:127 (protein)
chain: MIDGGGGSDPKKKRKVDPKKKRKVDPKKKRKVGSTGSRNDGGGGSGGGGSGGGGSGRAGILPPKKKRKVSRGRSRLLEDFRNNRYPNLQLREIAGHIMEFSQDQHGSRFIQLKLERATPAERQLVFNEILQAAYQLMVDVFGNYVIQKFFEFGSLEQKLALAERIRGHVLSLALQMYGSRVIEKALEFIPSDQQNEMVRELDGHVLKCVKDQNGNHVVQKCIECVQPQSLQFIIDAFKGQVFALSTHPYGCRVIQRILEHCLPDQTLPILEELHQHTEQLVQDQYGSYVIEHVLEHGRPEDKSKIVAEIRGNVLVLSQHKFANNVVQKCVTHASRTERAVLIDEVCTMNDGPHSALYTMMKDQYANYVVQKMIDVAEPGQRKIVMHKIRPHIATLRKYTYGKHILAKLEKYYMKNGVDLGDPKKKRKVDPKKKRKVGGRGGGGSGGGGSGGGGSGPALPEGPLVRKFHHLVSPFVGQQVVKTGGSSKKLQPASLQSLWLQDTQVHGKKLFLRFDLDEEMGPPGSSPTPEPPQKEVQKEGAADPKQVGEPSGQKTLDGSSRSAELVPQGEDDSEYLERDAPAGDAGRWLRVSFGLFGSVWVNDFSRAKKANKRGDWRDPSPRLVLHFGGGGFLAFYNCQLSWSSSPVVTPTCDILSEKFHRGQALEALGQAQPVCYTLLDQRYFSGLGNIIKNEALYRAGIHPLSLGSVLSASRREVLVDHVVEFSTAWLQGKFQGRPQHTQVYQKEQCPAGHQVMKEAFGPEDGLQRLTWWCPQCQPQLSEEPEQCQFS
- stimulation of TET1(CD) mediated hMLH1 activation by independent NEIL2 module (dual expression with PUFa-TET1(CD), gRNAs with both PBSa/c): significant stimulation of the TET1(CD) mediated hMLH1 activation
